Experimental data published in patent US20240417484A1, “ANTIGEN-BINDING POLYPEPTIDES AGAINST CD73” (UNIVERSITÄTSKLINIKUM HAMBURG-EPPENDORF, priority 2021, published 2024).
Numbering of substitutions follows the chain as printed.

Assays:
[1] = target: T1, human CD73 on cells (CD73-transfected HEK cells; native on PBMCs; OCI-AML3 cells) (human, UniProt P21589 27-549); assay: flow cytometry, human CD73-expressing cells; competitor: human IgG hcAb SB139
T1 construct: also called NT5E; gene ID 4907
T1 sequence: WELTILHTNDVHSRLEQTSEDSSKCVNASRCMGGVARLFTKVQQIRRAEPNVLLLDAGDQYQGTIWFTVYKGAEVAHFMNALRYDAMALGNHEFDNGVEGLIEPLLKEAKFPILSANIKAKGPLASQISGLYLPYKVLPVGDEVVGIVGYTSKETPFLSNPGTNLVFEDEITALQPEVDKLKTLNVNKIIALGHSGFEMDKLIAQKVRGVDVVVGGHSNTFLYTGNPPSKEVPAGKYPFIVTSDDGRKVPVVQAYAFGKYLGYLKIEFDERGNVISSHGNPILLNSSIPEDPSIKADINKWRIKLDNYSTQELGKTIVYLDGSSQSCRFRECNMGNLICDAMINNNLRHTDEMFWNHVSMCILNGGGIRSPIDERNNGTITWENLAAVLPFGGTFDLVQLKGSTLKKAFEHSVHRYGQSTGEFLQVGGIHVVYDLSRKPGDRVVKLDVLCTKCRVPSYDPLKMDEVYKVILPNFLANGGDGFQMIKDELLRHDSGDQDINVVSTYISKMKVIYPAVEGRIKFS
Description: (§1) The binding specificities of the purified hcAbs were determined by flow cytometry using HEK cells transiently co-transfected with expression vectors for GFP and either mouse CD73, human CD73 or a control protein (CD39). 1×10⁶ cells were incubated with 10 μl of the Nb-rbIgG hcAb containing HEK-6E cell supernatants for 30 min at 4° C. […] The cells were resuspended in PBS and analyzed by flow cytometry on FACS Canto or FACS Celesta (BD Biosciences, Heidelberg). Data evaluation was conducted using the software FlowJo (Treestar, Stanford, US).
(§2) To evaluate the epitopes on the CD73 protein recognized by different VHHs, representative rabbit IgG hcAbs were binned against a set of human IgG hcAbs, and bound hcAbs were detected with a PE-conjugated anti-rabbit IgG secondary antibody. Cells were pre-incubated with excess human IgG hcAbs for […] at RT to block specific epitopes before addition of rabbit IgG hcAbs as detectors and further incubation for 15 min at RT. Cells were washed, and bound antibodies were detected with PE-conjugated anti-rabbit IgG polyclonal antibody. Cells were washed and analyzed by flow cytometry on a BD-FACS Canto. Data were analyzed using the FlowJo software (Treestar). Lack of blockade by a non-binding control human IgG hcAb served as negative control (unblocked), and blockade of binding with the same VHH carrying human IgG hcAb as the rabbit IgG hcAb used for detection served as positive controls for blocking. Values for blocking were determined by comparing the mean fluorescence intensities (MFIs) of PE staining of transfected cells for unblocked vs blocked rabbit hcAbs using the formula: inhibition (%)=100−(MFI (blocked)/MFI MFI(unblocked)*100). The values were rounded to whole percentages.

[2] = target: T1, human CD73 on cells (CD73-transfected …); assay: flow cytometry, human CD73-expressing cells; competitor: MEDI9447
Description: as §1, §2

[3] = target: T1, human CD73 on cells (CD73-transfected …); assay: flow cytometry, human CD73-expressing cells; competitor: human IgG hcAb SB116
Description: as §1, §2

[4] = target: T2, recombinant human CD73 ectodomain (aa 27-549) with C-terminal His6x tag (human, UniProt P21589 27-549); assay: BLI (Octet), immobilized Nb-rbIgG hcAb, soluble human CD73 as analyte
T2 construct: also called soluble recombinant human CD73; soluble human CD73
T2 sequence: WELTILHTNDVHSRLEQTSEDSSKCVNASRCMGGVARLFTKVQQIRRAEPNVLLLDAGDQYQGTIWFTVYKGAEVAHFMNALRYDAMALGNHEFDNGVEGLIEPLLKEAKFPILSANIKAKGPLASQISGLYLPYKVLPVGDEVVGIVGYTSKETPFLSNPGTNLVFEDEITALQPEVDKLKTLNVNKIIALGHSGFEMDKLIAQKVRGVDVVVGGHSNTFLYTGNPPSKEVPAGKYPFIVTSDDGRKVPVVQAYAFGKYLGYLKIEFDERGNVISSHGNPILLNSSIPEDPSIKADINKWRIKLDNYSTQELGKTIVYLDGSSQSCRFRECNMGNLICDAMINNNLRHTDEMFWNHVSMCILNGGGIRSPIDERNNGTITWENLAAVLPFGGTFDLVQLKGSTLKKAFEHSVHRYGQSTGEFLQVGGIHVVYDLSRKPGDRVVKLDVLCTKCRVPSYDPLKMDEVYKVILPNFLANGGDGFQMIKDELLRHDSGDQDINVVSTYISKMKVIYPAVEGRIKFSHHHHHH
Description: The binding off-rate constants of bivalent hcAbs to human and mouse CD73 protein were determined by […] kinetic analysis on Octet RED96 (ForteBio). Immobilization of rabbit IgG hcAbs on the protein A-biosensor surface was done in HEK-6E cell supernatant, and regeneration of analytes was done with 100 mM Glycin pH=2.5. Recombinant mouse or human CD73 ectodomain was used as analytes and tested at a saturating dose of 200 ng/μl. Sensorgrams were fitted using least square regression in association than dissociation Model in Prism8 (Graphpad).

[5] = target: T1, human CD73 on cells (CD73-transfected …); assay: flow cytometry, human CD73-expressing cells; competitor: human IgG hcAb SB143
Description: as §1, §2

[6] = target: T3, mouse CD73 on transfected HEK cells (mouse, UniProt Q61503 29-551); assay: specificity column, binding to human (h) and mouse (m) CD73
T3 construct: whole, on cells; also called murine CD73; gene ID 23959
T3 sequence (looked up): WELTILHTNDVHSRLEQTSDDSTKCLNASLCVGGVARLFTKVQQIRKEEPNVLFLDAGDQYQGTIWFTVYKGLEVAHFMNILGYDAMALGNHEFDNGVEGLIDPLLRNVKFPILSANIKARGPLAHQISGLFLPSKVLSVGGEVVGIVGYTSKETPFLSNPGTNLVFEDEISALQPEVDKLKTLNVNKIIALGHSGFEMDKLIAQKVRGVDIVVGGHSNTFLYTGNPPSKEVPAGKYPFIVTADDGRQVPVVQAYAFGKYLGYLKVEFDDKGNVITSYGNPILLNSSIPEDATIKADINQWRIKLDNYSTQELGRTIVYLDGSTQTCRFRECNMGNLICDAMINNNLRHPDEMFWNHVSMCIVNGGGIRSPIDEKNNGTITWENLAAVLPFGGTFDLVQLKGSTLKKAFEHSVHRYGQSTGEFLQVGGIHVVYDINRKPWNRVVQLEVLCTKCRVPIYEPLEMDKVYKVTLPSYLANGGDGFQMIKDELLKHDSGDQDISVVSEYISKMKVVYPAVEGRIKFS
Description: as §1

[7] = target: T1, human CD73 on cells (CD73-transfected …); assay: flow cytometry, human CD73-expressing cells; competitor: IPH5301
Description: as §1, §2

[8] = target: T1, human CD73 on cells (CD73-transfected …); assay: flow cytometry, human CD73-expressing cells; competitor: human IgG hcAb SB121
Description: as §1, §2

[9] = target: T1, human CD73 on cells (CD73-transfected …); assay: flow cytometry, human CD73-expressing cells; competitor: human IgG hcAb SB96
Description: as §1, §2

[10] = target: T1, human CD73 on cells (CD73-transfected …); assay: flow cytometry, human CD73-expressing cells; competitor: human IgG hcAb SB141
Description: as §1, §2

B1: SB96 rabbit IgG hcAb (Fc fusion)
heavy: DVQLQASGGGLVQPGGSLRLSCTASGFTLDYLSIGWFRQVPGKEREGVSCINSSGGSTNYADSLKGRLTISRDNAKNTVYLQMNSLKPEDTAVYYCAAHKYYYCSNKVEVFDYWGQGTPVTVSS
notes: VHH fused upstream of hinge and Fc of rabbit IgG; also called Nb-rbIgG hcAb SB96; not shown: hinge and Fc-domains of rabbit IgG
percent inhibition of binding [1]: -25%
percent inhibition of binding [2]: 92%
percent inhibition of binding [3]: 73%
koff [4]: 3.9e-05 s⁻¹
percent inhibition of binding [5]: 70%
binding result [6]: binds
percent inhibition of binding [7]: 90%
percent inhibition of binding [8]: -29%
percent inhibition of binding [9]: 100%
percent inhibition of binding [10]: 17%

B2: SB143 rabbit IgG hcAb (Fc fusion)
heavy: QVQLVESGGGLVQAGGSLRLSCAASGRTFSRSTMGWFRQAPGKERVFVAAIRWIGGTTTYGDSVKGRFTISVDNAKNTLYLQMNSLKPEDTAVYYCAATAGGPYYLGGRDILYDYWGQGTQVTVSS
notes: not shown: hinge and Fc-domains of rabbit IgG
percent inhibition of binding [1]: 16%
percent inhibition of binding [2]: 98%
percent inhibition of binding [3]: 97%
koff [4]: 0.0013 s⁻¹
percent inhibition of binding [5]: 91%
percent inhibition of binding [7]: 99%
percent inhibition of binding [8]: 13%
percent inhibition of binding [9]: 100%
percent inhibition of binding [10]: 35%

B3: SB144 rabbit IgG hcAb (Fc fusion)
heavy: B2 heavy with R31G, V46A, T58A, T59K, V72I, Y104D, L112V
notes: as for B2
koff [4]: 0.00023 s⁻¹
binding result [6]: binds

B4: SB139 rabbit IgG hcAb (Fc fusion)
heavy: QVQLQESGGGLVQAGGSLRLSCAASENIFNIYGMGWYRQAPGKLRDLVAKITSGGRTTYADSVKGRFTISGDNAKNTVYLQMNSLKPEDTAVYYCNSYYYWGQGTQVTVSS
notes: as for B2
percent inhibition of binding [1]: 50%
percent inhibition of binding [2]: 73%
percent inhibition of binding [3]: 75%
koff [4]: 0.046 s⁻¹
percent inhibition of binding [5]: 77%
binding result [6]: binds
percent inhibition of binding [7]: 66%
percent inhibition of binding [8]: 3%
percent inhibition of binding [9]: 76%
percent inhibition of binding [10]: 47%

B5: SB141 rabbit IgG hcAb (Fc fusion)
heavy: QVQLVESGGGLVQPGGSLRLSCAASGFTFINYHMSWLRQAPGKGLEWVSEIHSRGDITSYTNSVKGRFTISRDNAKNTLYLQMNSLKFDDTAVYYCARSRDLFNEGEYDYWGRGTQVTVSS
notes: as for B2
percent inhibition of binding [1]: -7%
percent inhibition of binding [2]: 26%
percent inhibition of binding [3]: 16%
koff [4]: 0.00045 s⁻¹
percent inhibition of binding [5]: 66%
percent inhibition of binding [7]: 40%
percent inhibition of binding [8]: -1%
percent inhibition of binding [9]: 13%
percent inhibition of binding [10]: 84%

B6: SB116 rabbit IgG hcAb (Fc fusion)
heavy: QVKLQESGGGRVQTGGSLRLSCAASGISFSITTMYWYRQAPGEQRQLVALITDRGNTYYVDSVKGRFTISRDDSKNTVYLQMNDLKPEDTAVYFCNSIPGNDWGQGTQVTVSS
notes: also called SB116-rbFc; dimeric SB116 Fc construct; not shown: hinge and Fc-domains of rabbit IgG
percent inhibition of binding [1]: 2%
percent inhibition of binding [2]: 97%
percent inhibition of binding [3]: 72%
koff [4]: 0.00017 s⁻¹
percent inhibition of binding [5]: 65%
binding result [6]: binds
percent inhibition of binding [7]: 94%
percent inhibition of binding [8]: 6%
percent inhibition of binding [9]: 100%
percent inhibition of binding [10]: 47%

B7: SB121 rabbit IgG hcAb (Fc fusion)
heavy: QVQLQESGGGLVQAGGSLRLSCAASGSIGSIIAMGWYRQGPGKQRELVARMFTDDGSTNYDDSVKGRFTISRDSAGTTVYLQMNSLKPEDTAVYYCNAQRRWNAYWGPGTQVTVSS
notes: as for B2
percent inhibition of binding [1]: 0%
percent inhibition of binding [2]: 74%
percent inhibition of binding [3]: 75%
koff [4]: 0.022 s⁻¹
percent inhibition of binding [5]: 85%
binding result [6]: binds
percent inhibition of binding [7]: 77%
percent inhibition of binding [8]: 69%
percent inhibition of binding [9]: 53%
percent inhibition of binding [10]: 77%
